Measured values reported in patent publication CN115043940A (TIANCHEN BIOMEDICAL SUZHOU CO LTD, dated 2022).

Columns and labels:
[1] = target: T1, 人血清白蛋白(Human Serum Albumin,HSA) (human, UniProt P02768 25-609); test: Octet BLI, biotinylated HSA on SA sensor, VHH in solution
T1 construct: The only source named is native HSA (abcam ab205808), for immunisation; also called HSA蛋白; HSA抗原

食蟹猴血清白蛋白 = target: T2, 食蟹猴血清白蛋白 (cynomolgus monkey (食蟹猴), UniProt A2V9Z4 25-608, biotin-labelled (sites not given)); test: Octet BLI, biotinylated cynomolgus serum albumin on SA sensor, VHH in solution
T2 construct: Biotin-labelled and loaded on SA sensors in the Octet assay; also called albumin-macaca; alb-ma
T2 sequence (A2V9Z4 25-608 limits assumed): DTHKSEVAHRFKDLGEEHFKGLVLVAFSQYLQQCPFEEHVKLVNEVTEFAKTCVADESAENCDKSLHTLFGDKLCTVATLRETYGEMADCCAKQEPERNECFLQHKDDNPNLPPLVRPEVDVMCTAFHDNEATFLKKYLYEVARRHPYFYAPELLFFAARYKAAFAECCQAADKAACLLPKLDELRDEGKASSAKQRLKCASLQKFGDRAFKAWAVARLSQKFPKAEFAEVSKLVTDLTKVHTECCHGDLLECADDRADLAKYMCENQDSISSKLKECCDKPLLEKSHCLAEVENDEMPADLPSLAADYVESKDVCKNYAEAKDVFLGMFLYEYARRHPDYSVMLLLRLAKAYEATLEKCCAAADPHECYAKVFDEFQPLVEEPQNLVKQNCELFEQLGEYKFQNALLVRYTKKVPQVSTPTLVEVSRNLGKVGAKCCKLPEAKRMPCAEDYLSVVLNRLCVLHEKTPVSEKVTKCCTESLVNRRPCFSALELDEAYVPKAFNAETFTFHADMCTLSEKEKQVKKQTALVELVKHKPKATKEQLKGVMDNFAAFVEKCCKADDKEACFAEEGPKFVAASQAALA

T1 sequence (P02768 25-609 limits assumed): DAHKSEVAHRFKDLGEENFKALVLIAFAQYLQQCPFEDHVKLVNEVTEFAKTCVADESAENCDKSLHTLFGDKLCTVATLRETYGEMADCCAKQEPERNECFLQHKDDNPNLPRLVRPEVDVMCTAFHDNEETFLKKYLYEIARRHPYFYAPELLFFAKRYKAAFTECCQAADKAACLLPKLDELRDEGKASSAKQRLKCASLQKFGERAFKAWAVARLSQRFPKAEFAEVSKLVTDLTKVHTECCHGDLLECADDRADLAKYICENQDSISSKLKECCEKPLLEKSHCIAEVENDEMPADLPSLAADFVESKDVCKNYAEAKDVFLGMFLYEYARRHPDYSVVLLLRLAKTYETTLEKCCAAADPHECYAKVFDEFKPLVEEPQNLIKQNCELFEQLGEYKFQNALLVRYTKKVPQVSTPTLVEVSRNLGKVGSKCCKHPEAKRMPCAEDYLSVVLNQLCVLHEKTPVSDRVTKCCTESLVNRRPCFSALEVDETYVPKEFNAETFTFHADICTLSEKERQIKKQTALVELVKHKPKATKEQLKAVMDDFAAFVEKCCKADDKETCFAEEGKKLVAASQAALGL

Kd [1]	koff [1]	kon [1]	Kd (食蟹猴血清白蛋白)	koff (食蟹猴血清白蛋白)	kon (食蟹猴血清白蛋白)	Binder
1.24 nM	0.000687 s⁻¹	554000 M⁻¹ s⁻¹	0.217 nM	2.69e-05 s⁻¹	124000 M⁻¹ s⁻¹	单域抗体LB21 (VHH, not shown: C-terminal 6xHis-tag and HA-tag) VHH: QVQLVESGGGLVQPGGSLRLSCAASRIIFDVYNLAWFRQAPGKERELVASITSGLSTDYATTVKGRFIISRDNAKNTVYLQMNNLKPEDTAVYYCTANSRTTWYYWGQGTLVTVSS
0.109 nM	0.00014 s⁻¹	1.29e+06 M⁻¹ s⁻¹	0.708 nM	6.47e-05 s⁻¹	91300 M⁻¹ s⁻¹	单域抗体LB22 (VHH, not shown: C-terminal 6xHis-tag and HA-tag) VHH: QVQLQESGGGVVQPGGSLRLSCTASGFTFSVYAMGWYRQAPGKDCELVGLITSTSDTRYADSVKGRFSISRDNAKKTVYLQMNRLKPEDTAVYYCMAGNSWGATVQAMCKSDYDYWGQGTQVTVSS
